Results: the supplement of paper PMC12636428

Test system: Saccharomyces cerevisiae
Test: transcriptional activation domain activity (GFP:mCherry ratio, weighted mean of sorted bins, harmonized to initial dataset scale) (arbitrary fluorescence ratio units); higher = stronger transcriptional activation
Conditions: beta-estradiol 1 µM; induction time 4 h
How it was run: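 Barcoded protein tiles fused to an estradiol-inducible synthetic transcription factor were integrated at the yeast URA3 locus, in diploids carrying a GFP reporter. Cultures were diluted 1:5 into SC with 1 uM beta-estradiol, held 4 hours at 30 °C, sorted into 8 bins by GFP:mCherry ratio, and barcodes sequenced. Tiles under 50 reads were discarded. Activation activity is the read-weighted mean of bin median fluorescence, averaged across barcodes, then linearly mapped onto the initial dataset scale.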

GAQTSGPSSSAGSNNNSSSSSSEEDEPATGGSNGTQLKGKPRKTAAKRATSSG
transcriptional activation domain activity: 35300

YECALGIYSCVSFFVGVFYYIFIIFLSPIIFILLIILPLRISFVLCMAILLFG
transcriptional activation domain activity: 28600

IVFLFLCFAGFWMCVVCLLLLLYTAVPLIPPHSSSSFDSFGLFMLLLVSCMRF
transcriptional activation domain activity: 48000

LTPSSEQVIPACSTRTSTARASAGPSTKGAASRPSSSVSTRSRAPTPSSKKSC
transcriptional activation domain activity: 29300

DSEADSEDDDNGAESDKKMPVADKSEHQTGILSKLYKLNVYGEGSFFKPHKDT
transcriptional activation domain activity: 45700

TRVQDEWVSITKLARQAKESAGKEKKGKGGRGVYSQNSKVWEGVVKLLVAIVA
transcriptional activation domain activity: 46300

VAEDAVVAEDAVAAVVDVDVNHVAAAAVVDVEDVEGAEDVEGVVDAAAHRVAA
transcriptional activation domain activity: 16900

LPSSLLFLLPHLFPTLPLLPSIPLLTPSSSSLFFHLICLYCPPFAFWAWFWFW
transcriptional activation domain activity: 55900

KKKRDNRREKPRKSRKGRSDDEIREGEEGESRRRKRKEGGGRARAATPQEENE
transcriptional activation domain activity: 32800

GLLSSCVLIVLVIHHPFLLSDNRHYTFYIWRRVYMFHPIVPYALIPAYLACAW
transcriptional activation domain activity: 66700

REYNRMLRFYGVQDHQVKNTRLSVKEAFMLIIYRCVEVFCLFILSLPMIVLAS
transcriptional activation domain activity: 58200

MLILLLLLLLLLLLLLLLIMIMIMILMIFLLLFMILIFLLVIMREFCWLWVLW
transcriptional activation domain activity: 44900

AILLGEAYGYRILPFVPVWTIFATVNLAYAVCSTSWLLYWVYLVCCWPTLLIV
transcriptional activation domain activity: 55500

TGSTIVRGVLHVFSDQKVNLEQISFGQLNKMIGLLGERRDYRTLSWLLTILWN
transcriptional activation domain activity: 73300

RVLETPAIFPSFLNTALFPMPFIVGLILFFFFALFPFPLPFLSPSFFPSILQY
transcriptional activation domain activity: 43200

SYLHSFLLSFLYPPSPLVSSPFTLLCSFPYFFSFLSFFFSFSFPYSSSCFVFH
transcriptional activation domain activity: 45000

VMLSFFICRPILRLLHVFHISSPIYLYLPFVPLHLLIYPSFLIDVGLLSMVLA
transcriptional activation domain activity: 65200

MSSSLPSESPCQEPTKRRRKVKTGCRTCKIRRVKCDEGRPACHRCVSTGRVCD
transcriptional activation domain activity: 54000

VDLTQLSHLMLKIWLELILIVVYKHNILERTYENMVISCMKQVIDLLARDISE
transcriptional activation domain activity: 51900

AAAPAPEPAPKKGRPGRKPAAKSEPEAVEEKTEDAPKKRGRRSTLIPEPVEET
transcriptional activation domain activity: < 6570

GAAASTPAAPQKPAGGLFGGAGLGAASKPADAAASSSSSGLFGAKPAESAPAA
transcriptional activation domain activity: 30900

DSGKQGFLFLVCLVFFVFFWGFACDLWLGLLLLFFFFPFLSFPLFSLPHYHGH
transcriptional activation domain activity: 43900

MDTTDASRGRSKACTYCNKSKTKCMWAGEPGAGACQRCTRLRRSCILPEKGER
transcriptional activation domain activity: 10200

VWIVIYISLSYLFSGVLESVILIYSWIRGFPVIQLLFPKCQVYMNGFLVLFVI
transcriptional activation domain activity: 61200

LHQFDHFGYQQVFSVRWMKKHLHDVSGGVMLHVIKYMANILSSLLAPMGYFEM
transcriptional activation domain activity: 29600

MPEPAAAAAPRQRAFRTKSRLGCLQCKRRHVKCDERRPRCGRCVAAGSDCSLQ
transcriptional activation domain activity: 17400

TLHHKHVVLWNTSRQVATEVIRLPFSCSGKMLCLLLLPEAEDGLKRVHVVALS
transcriptional activation domain activity: 25600

IKVQYKGGLIGHQFKDLAQIMSFILYDLGPDTLIECWVRLGWFMSLLWYPKIQ
transcriptional activation domain activity: 58700

SDDSSEASAIDSGDSSSQSSSDSDSEDAKKKTRRKTAKAKAKAKSKSKNSKKV
transcriptional activation domain activity: 24800

EEPKAEEAAPAAEAPAAEAPAAETPAAEPAAEQPATEEAKPAESAATETKKED
transcriptional activation domain activity: 12500

RNLMVIVLVVGNLRLMIENLQKYGVLICLHCHDFRRSDILLGLGLYFLIPCHL
transcriptional activation domain activity: 64000

MVIRYGKLNLKYHPVHCLNHFQILCLSWAFCALLDPVGLIVSILLWKLLPTIE
transcriptional activation domain activity: 69300

MLFPCGVLFLSVFSISDTYVAFFFFFFFSFGWSFVSIGFLLFTIFFLGISFFF
transcriptional activation domain activity: 32300

KPEPAGEKAEVANGEGAPEGNRRRPSGRGRGRGRGGRGARGGRDAKEEGAEEA
transcriptional activation domain activity: 51900

MEPRLGHPALLVYSLLLLLLILRWKMFSFLCVVFQWRCIMLFLVFLVFCWGVG
transcriptional activation domain activity: 35900

RGKVVSRLRKVLQKTSFKPTRSLTDHWTWNEIAILIRFVLMLSFNNRGPVKSY
transcriptional activation domain activity: 43200

ISIAQIEIAILFHISFFIFYFVSISFLLLYFICCILCTYVLLIYSLSFLYLVV
transcriptional activation domain activity: 45800

AVRAATSVLCKEMLRPGQSASLGLREAEEVECRMRALARLERVWVKTGASTNG
transcriptional activation domain activity: 54900

FRRYKGPGREDEETDDEDEVRPRRPMEMKKRVLHLLTTEITINTTLYGDFTAF
transcriptional activation domain activity: 27700

ILVGGFGLELGMNGVYPWYIFLFLACLASDFEFTMLFELTVGFFFPPLLFMCL
transcriptional activation domain activity: 51800

ITQRLGENIICAVCITYLHSLLLVTILDRSEGCLLQYSLRMHIASKFQPSHQF
transcriptional activation domain activity: 51500

FVLLLFTCVHVFVVYLVVIAFFTVNICLLWTIALSFMLWYIFFCNLSCSTWPL
transcriptional activation domain activity: 54300

MSEREREHRGGRQDRLTGRSRSRSVRRHEKGDKGADDGRQARERHRSRSPARK
transcriptional activation domain activity: 27400

FGLFGPLDFLDFLDLWTFWTFWTLNFLDFWTFGLFGLLALDLDFLDFLDFLDL
transcriptional activation domain activity: 57800

KIAAGAALATAAGVGLHHLRERQRSQSRSSSSERSGRSRSRHRLRHAAELGAA
transcriptional activation domain activity: 64000

KQYCVRPNSGRIEPGRDVEVQVLLQAMREDPPPDAKCRDKFLVQSVAVTADKE
transcriptional activation domain activity: 44900

FVTLFGLAYFILTILPCLDHSCPYRTPMSSLWWYLWHMSLSSATLCLCWLLRL
transcriptional activation domain activity: 33600

MAPAPAPVAAPPAPETREAPPASPRGRSRSRSRSPAFRRPSPPAPRRPVGAPA
transcriptional activation domain activity: 29100

TKQGHELLHQLRHLIIFREGMPCSDITLKLDIHVSKLVFVFLSAFEHGLCSKD
transcriptional activation domain activity: 58200

LGLDSGYLWSGILYNLSVTISLYSLGMFWVCMSKDLQPFRPVPKFLCIKLIIF
transcriptional activation domain activity: 53200

GAATTANAGGKRNRMKVNGKYYTRLDCIGRGGSSRVYRVMAENSKFFALKRVT
transcriptional activation domain activity: 35500

LVQIVCVAGMHVTLYEQSCLYKCENLKRIITSFHHVNRKVRDAFINLYGKLNP
transcriptional activation domain activity: 74600

RWINSTIHNLFEVVMLPDLCGFCCFSMRFVVLLDLIGTLSLPVSFVYLVYLIY
transcriptional activation domain activity: 64400

DLAPVQPVQKQARRRSGPACEGCKARKTKCDGKRPTCGSCVDKRHCVYADASV
transcriptional activation domain activity: 21900

IWMILEIARSTLVFFRIYNFGHFVYNLVTKFDLMAIIPLLLVTLLPQIWFFCF
transcriptional activation domain activity: 33800

TASSGTRATTTSSAPRSRRTHTTPLRAAQARAPRCRTARARTSCGSTPTARRS
transcriptional activation domain activity: 23800

MSVYLFCGLLIFLGCGGSGWRYGFLSFFRLLLGVYVSFRYQHLIYTAWLMWAY
transcriptional activation domain activity: 69200

SDEEEKPKPKQGKKKAKAPKKEEEFEGEPEEEEKPKPKKTNGRKKAVKAEEED
transcriptional activation domain activity: 36300

SFWNTAFHPVYFNTTDLVLSFPFLFLPSFSSFFSFLFCIVIFTIVQRLYVFIS
transcriptional activation domain activity: 97000

ENDGEEVEGEEKESSQGAGGLMGRFTKETDDVRLGASQNIGLVLQYLTSFIAC
transcriptional activation domain activity: 17000

TEQSVFVGLLLYRLKYPANLVSLVLKLSAVQSTLFKVVFAVYLLVWWGIKQAR
transcriptional activation domain activity: 63100
